According to patent publication US20090022728A1:

Experiments:
Aβ1-42 peptide = experiment: ELISA, nonbiotinylated peptide on plate
Aβ1-40 peptide = experiment: ELISA, nonbiotinylated peptide on plate
Sequence of Aβ1-40 peptide (peptide, as listed by the source): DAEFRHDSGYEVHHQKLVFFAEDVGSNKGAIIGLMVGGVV

Sequence of Aβ1-42 peptide (peptide, as listed by the source): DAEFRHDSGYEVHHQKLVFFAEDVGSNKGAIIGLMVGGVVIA

| A450 ELISA (Aβ1-42 peptide) [A450] | A450 ELISA (Aβ1-40 peptide) [A450] | Binder |
| --- | --- | --- |
| 0.19 |  | 6G light chain variant 7F (Q94K) (antibody, V domains shown) VH: QVQLVQSGAEVKKPGASVKVSCKASGYTFTTYAIHWVRQAPGQGLEWMGFTSPYSGVSNYNQKFKGRVTMTRDTSTSTVYMELSSLRSEDTAVYYCARFDNYDRGYVRDYWGQGTLVTVS VL: DIVMTQSPDSLAVSLGERATINCRASESVDNDRISFLNWYQQKPGQPPKLLIYAATKQGTGVPDRFSGSGSGTDFTLTISSLQAEDVAVYYCQKSKEFPWSFGGGTKVEIKR |
| 0.12 |  | 6G light chain variant 10E (S95L) (antibody, V domains shown) VH: QVQLVQSGAEVKKPGASVKVSCKASGYTFTTYAIHWVRQAPGQGLEWMGFTSPYSGVSNYNQKFKGRVTMTRDTSTSTVYMELSSLRSEDTAVYYCARFDNYDRGYVRDYWGQGTLVTVS VL: DIVMTQSPDSLAVSLGERATINCRASESVDNDRISFLNWYQQKPGQPPKLLIYAATKQGTGVPDRFSGSGSGTDFTLTISSLQAEDVAVYYCQQLKEFPWSFGGGTKVEIKR |
| 0.18 |  | 6G light chain variant 7E (Q94R) (antibody, V domains shown) VH: QVQLVQSGAEVKKPGASVKVSCKASGYTFTTYAIHWVRQAPGQGLEWMGFTSPYSGVSNYNQKFKGRVTMTRDTSTSTVYMELSSLRSEDTAVYYCARFDNYDRGYVRDYWGQGTLVTVS VL: DIVMTQSPDSLAVSLGERATINCRASESVDNDRISFLNWYQQKPGQPPKLLIYAATKQGTGVPDRFSGSGSGTDFTLTISSLQAEDVAVYYCQRSKEFPWSFGGGTKVEIKR |

Further lines, the binder ahead of its results:

| Binder | A450 ELISA (Aβ1-42 peptide) [A450] | A450 ELISA (Aβ1-40 peptide) [A450] |
| --- | --- | --- |
| 6G heavy chain variant 7D (N101C) (antibody, V domains shown) VH: QVQLVQSGAEVKKPGASVKVSCKASGYTFTTYAIHWVRQAPGQGLEWMGFTSPYSGVSNYNQKFKGRVTMTRDTSTSTVYMELSSLRSEDTAVYYCARFDCYDRGYVRDYWGQGTLVTVS VL: DIVMTQSPDSLAVSLGERATINCRASESVDNDRISFLNWYQQKPGQPPKLLIYAATKQGTGVPDRFSGSGSGTDFTLTISSLQAEDVAVYYCQQSKEFPWSFGGGTKVEIKR | 0.31 | 0.23 |
| 6G heavy chain variant 8H (N101H) (antibody, V domains shown) VH: QVQLVQSGAEVKKPGASVKVSCKASGYTFTTYAIHWVRQAPGQGLEWMGFTSPYSGVSNYNQKFKGRVTMTRDTSTSTVYMELSSLRSEDTAVYYCARFDHYDRGYVRDYWGQGTLVTVS VL: DIVMTQSPDSLAVSLGERATINCRASESVDNDRISFLNWYQQKPGQPPKLLIYAATKQGTGVPDRFSGSGSGTDFTLTISSLQAEDVAVYYCQQSKEFPWSFGGGTKVEIKR |  | 0.21 |
| 6G heavy chain variant 9E (N101R) (antibody, V domains shown) VH: QVQLVQSGAEVKKPGASVKVSCKASGYTFTTYAIHWVRQAPGQGLEWMGFTSPYSGVSNYNQKFKGRVTMTRDTSTSTVYMELSSLRSEDTAVYYCARFDRYDRGYVRDYWGQGTLVTVS VL: DIVMTQSPDSLAVSLGERATINCRASESVDNDRISFLNWYQQKPGQPPKLLIYAATKQGTGVPDRFSGSGSGTDFTLTISSLQAEDVAVYYCQQSKEFPWSFGGGTKVEIKR |  | 0.22 |
| 6G light chain variant 5B (Q94G) (antibody, V domains shown) VH: QVQLVQSGAEVKKPGASVKVSCKASGYTFTTYAIHWVRQAPGQGLEWMGFTSPYSGVSNYNQKFKGRVTMTRDTSTSTVYMELSSLRSEDTAVYYCARFDNYDRGYVRDYWGQGTLVTVS VL: DIVMTQSPDSLAVSLGERATINCRASESVDNDRISFLNWYQQKPGQPPKLLIYAATKQGTGVPDRFSGSGSGTDFTLTISSLQAEDVAVYYCQGSKEFPWSFGGGTKVEIKR | 0.14 |  |
| 6G light chain variant 6E (E97P) (antibody, V domains shown) VH: QVQLVQSGAEVKKPGASVKVSCKASGYTFTTYAIHWVRQAPGQGLEWMGFTSPYSGVSNYNQKFKGRVTMTRDTSTSTVYMELSSLRSEDTAVYYCARFDNYDRGYVRDYWGQGTLVTVS VL: DIVMTQSPDSLAVSLGERATINCRASESVDNDRISFLNWYQQKPGQPPKLLIYAATKQGTGVPDRFSGSGSGTDFTLTISSLQAEDVAVYYCQQSKPFPWSFGGGTKVEIKR | 0.2 |  |
